Positions count from the first letter of the chain named. Names may count otherwise.
Columns and labels:
[1] = molecular target: AnkG_repeats (24 ANK repeats of rat 190 kDa ankyrin-G, residues 38–855) (rat) (UniProt O70511); experiment: ITC; VP-ITC at 25°C; 50 mM Tris pH 7.5, 100 mM NaCl, 1 mM EDTA, 1 mM DTT; binding partner (AS, Nav1.2 ABD proteins, neurofascin ABD; 200–300 µM) in the syringe, ANK repeats (20–30 µM) in the cell; one-site binding model
[2] = molecular target: T1, AnkR_repeats (24 ANK repeats of ankyrin-R, residues 42–853) (mouse, UniProt Q02357-6 42-853); experiment: ITC
T1 chain: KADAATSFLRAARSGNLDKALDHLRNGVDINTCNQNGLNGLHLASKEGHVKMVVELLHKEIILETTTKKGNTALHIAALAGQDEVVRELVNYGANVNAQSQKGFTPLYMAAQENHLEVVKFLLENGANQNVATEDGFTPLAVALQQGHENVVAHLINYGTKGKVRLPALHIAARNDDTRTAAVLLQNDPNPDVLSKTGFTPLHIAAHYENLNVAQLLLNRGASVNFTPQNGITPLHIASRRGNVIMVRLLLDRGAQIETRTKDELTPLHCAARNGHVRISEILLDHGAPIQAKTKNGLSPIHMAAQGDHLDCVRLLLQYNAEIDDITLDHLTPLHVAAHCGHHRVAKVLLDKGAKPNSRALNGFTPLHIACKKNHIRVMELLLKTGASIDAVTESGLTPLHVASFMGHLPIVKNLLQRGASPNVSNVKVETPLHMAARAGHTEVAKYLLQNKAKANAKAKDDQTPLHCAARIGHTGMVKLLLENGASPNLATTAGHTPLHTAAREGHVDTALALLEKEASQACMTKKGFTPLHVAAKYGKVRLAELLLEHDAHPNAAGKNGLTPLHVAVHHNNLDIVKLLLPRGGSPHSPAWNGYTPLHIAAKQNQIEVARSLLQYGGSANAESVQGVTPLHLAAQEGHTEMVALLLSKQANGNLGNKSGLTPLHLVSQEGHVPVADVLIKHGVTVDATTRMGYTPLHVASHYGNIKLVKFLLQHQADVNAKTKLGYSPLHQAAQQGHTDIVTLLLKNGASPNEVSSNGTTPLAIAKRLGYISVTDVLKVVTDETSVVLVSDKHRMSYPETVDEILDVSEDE

[3] = molecular target: T2, FITC-labeled AnkR_AS peptide; experiment: fluorescence polarisation; conditions: chain shown with the change
T2 chain: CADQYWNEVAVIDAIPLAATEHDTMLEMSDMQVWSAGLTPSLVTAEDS

[4] = molecular target: FITC-labeled AnkR_AS peptide (mouse); experiment: fluorescence polarisation; FITC-labeled peptide (~1 µM) titrated with AnkB_repeats WT or mutants; 25°C; 50 mM Tris pH 8.0, 100 mM NaCl, 1 mM DTT, 1 mM EDTA; one-site binding model
[5] = molecular target: T3, Nav1.2_ABD (ankyrin binding domain of Nav1.2, residues 1035–1129); experiment: ITC; conditions: chain shown with the change
T3 chain: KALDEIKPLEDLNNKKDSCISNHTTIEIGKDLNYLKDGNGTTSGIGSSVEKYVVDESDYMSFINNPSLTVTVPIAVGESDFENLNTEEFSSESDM

## Nfasc_ABD (28-residue fragment of the neurofascin cytoplasmic tail, residues 1187–1214) (domain or fragment)
[1]
  Kd: 210 nM

## Nav1.2_ABD-C (27-residue motif of loop 2, residues 1103–1129) (domain or fragment)
[1]
  fold weaker affinity than the entire ABD: 15 fold

## E1112A-Nav1.2 (ABD with E1112A) (domain or fragment)
[1]
  fold weaker binding than wild-type Nav1.2: 30 fold

## Nav1.2_ABD (ankyrin binding domain of Nav1.2, residues 1035–1129) (domain or fragment)
[1]
  Kd: 170 nM

## E1112Q-Nav1.2 (ABD with E1112Q) (domain or fragment)
[1]
  fold weaker binding than wild-type Nav1.2: 30 fold

## DAIPLAATEHDTMLEMSDMQVWSAGLTPSLVTAEDS [AnkR 1589-1624]
[2]
  Kd: 2200 nM

## DAIPLAATEHDTMLEMSDMQVWSA [AnkR 1589-1612]
[2]
  Kd: 23000 nM

B1: AnkR 1529-1672 (protein)
chain: RQSRNLKPERRHGDREYSLSPSQVNGYSSLQDELLSPASLQYALPSPLCADQYWNEVTVIDAIPLAATEHDTMLEMSDMQVWSAGLTPSLVTAEDSSLECSKAEDSDAIPEWKLEGAHSEDTQGPELGSQDLVEDDTVDSDATN
[2]
  Kd: 1100 nM

B2: AnkB_repeats (24 ANK repeats of human 220 kDa ankyrin-B, residues 28–873), Q01484 L366Q; F399Q; L432Q (protein)
chain: KSDSNASFLRAARAGNLDKVVEYLKGGIDINTCNQNGLNALHLAAKEGHVGLVQELLGRGSSVDSATKKGNTALHIASLAGQAEVVKVLVKEGANINAQSQNGFTPLYMAAQENHIDVVKYLLENGANQSTATEDGFTPLAVALQQGHNQAVAILLENDTKGKVRLPALHIAARKDDTKSAALLLQNDHNADVQSKMMVNRTTESGFTPLHIAAHYGNVNVATLLLNRGAAVDFTARNGITPLHVASKRGNTNMVKLLLDRGGQIDAKTRDGLTPLHCAARSGHDQVVELLLERGAPLLARTKNGLSPLHMAAQGDHVECVKHLLQHKAPVDDVTLDYQTALHVAAHCGHYRVTKLLLDKRANPNARALNGQTPLHIACKKNRIKVMELLVKYGASIQAITESGQTPIHVAAFMGHLNIVLLLLQNGASPDVTNIRGETALHMAARAGQVEVVRCLLRNGALVDARAREEQTPLHIASRLGKTEIVQLLLQHMAHPDAATTNGYTPLHISAREGQVDVASVLLEAGAAHSLATKKGFTPLHVAAKYGSLDVAKLLLQRRAAADSAGKNGLTPLHVAAHYDNQKVALLLLEKGASPHATAKNGYTPLHIAAKKNQMQIASTLLNYGAETNIVTKQGVTPLHLASQEGHTDMVTLLLDKGANIHMSTKSGLTSLHLAAQEDKVNVADILTKHGADQDAHTKLGYTPLIVACHYGNVKMVNFLLKQGANVNAKTKNGYTPLHQAAQQGHTHIINVLLQHGAKPNATTANGNTALAIAKRLGYISVVDTLKVVTEEVTTTTTTITEKHKLNVPETMTEVLDVSDEEGDDTMTGDGGEYLRPEDLKELGDD
[3]
  Kd: 410 nM

B3: AnkB_repeats (24 ANK repeats of human 220 kDa ankyrin-B, residues 28–873) (domain or fragment)
chain: B2 chain with Q339L, Q372F, Q405L
[4]
  Kd: 140 nM

B4: AnkB_repeats site 1 mutant 'FF' (Phe131 and Phe164 to Gln) (domain or fragment)
chain: B2 chain with F104Q, F137Q, Q339L, Q372F, Q405L
[4]
  fold decrease in AnkR AS binding against WT ANK repeats: 20 fold

B5: AnkB_repeats site 3 mutant 'LFL' (Leu366, Phe399 and Leu432 to Gln) (domain or fragment)
chain: B2 chain
[4]
  fold decrease in AnkR AS binding against WT ANK repeats: 3 fold

B6: AnkB_repeats (24 ANK repeats of human 220 kDa ankyrin-B, residues 28–873), Q01484 I267Q; L300Q (protein)
chain: B2 chain with I240Q, L273Q, Q339L, Q372F, Q405L
[3]
  Kd: 3100 nM

B7: AnkB_repeats site 2 mutant 'IL' (Ile267 and Leu300 to Gln) (domain or fragment)
chain: B2 chain with I240Q, L273Q, Q339L, Q372F, Q405L
[4]
  fold decrease in AnkR AS binding against WT ANK repeats: 20 fold

B8: AnkB_repeats (24 ANK repeats of human 220 kDa ankyrin-B, residues 28–873), Q01484 F131Q; F164Q (protein)
chain: B2 chain with F104Q, F137Q, Q339L, Q372F, Q405L
[3]
  Kd: 2700 nM

B9: AnkR 1529-1825 (protein)
chain: RQSRNLKPERRHGDREYSLSPSQVNGYSSLQDELLSPASLQYALPSPLCADQYWNEVTVIDAIPLAATEHDTMLEMSDMQVWSAGLTPSLVTAEDSSLECSKAEDSDAIPEWKLEGAHSEDTQGPELGSQDLVEDDTVDSDATNGLADLLGQEEGQRSEKKRQEVSGTEQDTETEVSLVSGQQRVHARITDSPSVRQVLDRSQARTLDWDKQGSTAVHPQEATQSSWQEEVTQGPHSFQRRITTIQGPEPGALQEYEQVLVSTREHVQRGPPETGSPKAGKEPSLWAPESAFSQEVQ
[2]
  Kd: 1000 nM

B10: AnkR 1601-1672 (protein)
chain: MLEMSDMQVWSAGLTPSLVTAEDSSLECSKAEDSDAIPEWKLEGAHSEDTQGPELGSQDLVEDDTVDSDATN
[2]
  Kd: > 50000 nM

## CADQYWNEVTVIDAIPLAATEHDTMLEMSDMQVWSA [AnkR 1577-1612]
[2]
  Kd: 2000 nM

B11: AnkG_repeats (24 ANK repeats of rat 190 kDa ankyrin-G, residues 38–855), O70511 T94A; N98E (protein)
chain: KSDANASYLRAARAGHLEKALDYIKNGVDVNICNQNGLNALHLASKEGHVEVVSELLQREANVDAAAKKGETALHIASLAGQAEVVKVLVTNGANVNAQSQNGFTPLYMAAQENHLEVVRFLLDNGASQSLATEDGFTPLAVALQQGHDQVVSLLLENDTKGKVRLPALHIAARKDDTKAAALLLQNDTNADIESKMVVNRATESGFTPLHIAAHYGNINVATLLLNRAAAVDFTARNDITPLHVASKRGNANMVKLLLDRGAKIDAKTRDGLTPLHCGARSGHEQVVEMLLDRAAPILSKTKNGLSPLHMATQGDHLNCVQLLLQHNVPVDDVTNDYLTALHVAAHCGHYKVAKVLLDKKANPNAKALNGFTPLHIACKKNRIRVMELLLKHGASIQAVTESGLTPIHVAAFMGHVNIVSQLMHHGASPNTTNVRGETALHMAARSGQAEVVRYLVQDGAQVEAKAKDDQTPLHISARLGKADIVQQLLQQGASPNAATTSGYTPLHLSAREGHEDVAAFLLDHGASLSITTKKGFTPLHVAAKYGKLEVASLLLQKSASPDAAGKSGLTPLHVAAHYDNQKVALLLLDQGASPHAAAKNGYTPLHIAAKKNQMDIATSLLEYGADANAVTRQGIASVHLAAQEGHVDMVSLLLSRNANVNLSNKSGLTPLHLAAQEDRVNVAEVLVNQGAHVDAQTKMGYTPLHVGCHYGNIKIVNFLLQHSAKVNAKTKNGYTPLHQAAQQGHTHIINVLLQNNASPNELTVNGNTALAIARRLGYISVVDTLKVVTEEIMTTTTITEKHKMNVPETMNEVLDMS
[5]
  Kd: 2600 nM

B12: AnkR 1529-1600 (protein)
chain: RQSRNLKPERRHGDREYSLSPSQVNGYSSLQDELLSPASLQYALPSPLCADQYWNEVTVIDAIPLAATEHDT
[2]
  Kd: > 50000 nM

Source: PMC4358367, “Structural basis of diverse membrane target recognitions by ankyrins” (eLife, 2014)
